How the values were obtained:
CXCR4 = target: T1, CXCR4 (UniProt P61073 1-352, limits assumed); test: binding to CXCR4 positive cells (FIGS. 47A-47B)
T1 construct: whole, on cells; also called chemokine receptor type 4; CXCR4 on Mel290 cells

collagen type I = collagen type I (mouse, UniProt P11087 152-1207; Q01149 86-1125); test: cell-based or functional assay
PSMA [1] = target: T2, PSMA (UniProt Q04609 1-750, limits assumed); test: indirect ELISA on coated LNCaP cell lysate
T2 construct: whole, on cells; also called PSMA in LNCaP cell lysate; PSMA on LNCaP cells
Text: Briefly, LNCaP cell lysates were coated in a 96-well plate and 5% BSA was used as blocking agent. […] The interaction between ProCA32 variants and PSMA in cell lysates was quantified by ELISA using HRP-conjugated goat-anti-rabbit secondary antibody and one step ELISA kit.

PSMA [2] = target: T2, PSMA; test: assay not given; presumably the ELISA on LNCaP cell lysate of FIG. 10

T2 sequence (Q04609 whole entry): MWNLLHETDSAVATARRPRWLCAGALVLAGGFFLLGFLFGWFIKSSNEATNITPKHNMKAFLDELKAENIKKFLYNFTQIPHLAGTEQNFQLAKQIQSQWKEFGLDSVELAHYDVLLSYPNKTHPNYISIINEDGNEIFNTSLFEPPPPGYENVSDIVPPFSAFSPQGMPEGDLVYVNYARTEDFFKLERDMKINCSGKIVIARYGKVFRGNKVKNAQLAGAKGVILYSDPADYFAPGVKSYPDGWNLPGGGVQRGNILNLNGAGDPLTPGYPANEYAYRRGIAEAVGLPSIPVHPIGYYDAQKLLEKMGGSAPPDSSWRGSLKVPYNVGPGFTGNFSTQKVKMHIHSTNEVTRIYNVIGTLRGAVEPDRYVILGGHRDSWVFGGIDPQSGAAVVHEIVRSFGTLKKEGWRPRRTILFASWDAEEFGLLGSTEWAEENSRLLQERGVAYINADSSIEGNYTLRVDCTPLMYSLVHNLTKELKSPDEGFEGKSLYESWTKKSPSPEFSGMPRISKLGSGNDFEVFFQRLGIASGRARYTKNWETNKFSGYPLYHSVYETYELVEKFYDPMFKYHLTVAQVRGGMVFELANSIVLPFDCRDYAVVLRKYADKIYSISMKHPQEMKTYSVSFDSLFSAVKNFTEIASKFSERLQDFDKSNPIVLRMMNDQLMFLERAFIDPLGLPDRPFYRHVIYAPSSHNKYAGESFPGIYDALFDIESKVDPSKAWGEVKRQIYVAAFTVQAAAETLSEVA
T1 sequence (P61073 whole entry): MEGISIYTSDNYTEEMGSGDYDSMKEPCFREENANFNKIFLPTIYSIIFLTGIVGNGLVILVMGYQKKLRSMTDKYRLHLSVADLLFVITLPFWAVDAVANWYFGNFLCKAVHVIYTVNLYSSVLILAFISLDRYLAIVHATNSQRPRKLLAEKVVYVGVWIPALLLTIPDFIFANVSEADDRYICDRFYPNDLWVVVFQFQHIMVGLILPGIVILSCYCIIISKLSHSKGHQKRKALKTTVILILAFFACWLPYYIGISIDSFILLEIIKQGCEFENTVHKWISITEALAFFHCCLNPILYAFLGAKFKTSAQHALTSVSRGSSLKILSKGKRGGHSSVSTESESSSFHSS
Sequence of collagen type I (P11087 152-1207, chain 1 of 2): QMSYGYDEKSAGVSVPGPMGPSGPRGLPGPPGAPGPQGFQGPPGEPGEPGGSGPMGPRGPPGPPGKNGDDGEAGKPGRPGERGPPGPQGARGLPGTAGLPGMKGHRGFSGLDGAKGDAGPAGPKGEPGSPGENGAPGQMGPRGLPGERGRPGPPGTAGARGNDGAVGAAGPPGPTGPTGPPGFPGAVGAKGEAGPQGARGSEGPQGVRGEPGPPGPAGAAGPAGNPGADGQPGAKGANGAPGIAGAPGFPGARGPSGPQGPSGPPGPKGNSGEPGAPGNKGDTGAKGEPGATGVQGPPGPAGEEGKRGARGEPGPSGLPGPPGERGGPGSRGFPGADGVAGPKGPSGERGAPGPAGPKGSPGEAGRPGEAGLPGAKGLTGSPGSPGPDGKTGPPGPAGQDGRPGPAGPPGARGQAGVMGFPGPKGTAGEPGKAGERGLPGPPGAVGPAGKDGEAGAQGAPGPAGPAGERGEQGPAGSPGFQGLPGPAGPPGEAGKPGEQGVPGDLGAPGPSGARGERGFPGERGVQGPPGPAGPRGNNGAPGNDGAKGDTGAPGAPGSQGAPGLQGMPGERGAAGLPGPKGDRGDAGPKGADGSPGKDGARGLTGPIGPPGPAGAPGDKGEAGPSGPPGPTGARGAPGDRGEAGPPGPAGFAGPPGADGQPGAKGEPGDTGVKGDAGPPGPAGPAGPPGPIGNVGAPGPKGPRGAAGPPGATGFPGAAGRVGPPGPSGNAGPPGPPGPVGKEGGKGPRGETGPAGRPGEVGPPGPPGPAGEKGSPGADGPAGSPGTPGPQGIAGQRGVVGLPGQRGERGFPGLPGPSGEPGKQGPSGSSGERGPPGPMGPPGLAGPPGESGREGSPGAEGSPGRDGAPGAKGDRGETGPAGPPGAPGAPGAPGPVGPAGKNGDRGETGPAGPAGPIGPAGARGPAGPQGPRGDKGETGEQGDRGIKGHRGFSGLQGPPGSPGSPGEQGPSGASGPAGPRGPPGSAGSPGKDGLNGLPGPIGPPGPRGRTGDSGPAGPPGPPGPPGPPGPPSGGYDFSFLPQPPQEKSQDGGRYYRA
Sequence of collagen type I (Q01149 86-1125, chain 2 of 2): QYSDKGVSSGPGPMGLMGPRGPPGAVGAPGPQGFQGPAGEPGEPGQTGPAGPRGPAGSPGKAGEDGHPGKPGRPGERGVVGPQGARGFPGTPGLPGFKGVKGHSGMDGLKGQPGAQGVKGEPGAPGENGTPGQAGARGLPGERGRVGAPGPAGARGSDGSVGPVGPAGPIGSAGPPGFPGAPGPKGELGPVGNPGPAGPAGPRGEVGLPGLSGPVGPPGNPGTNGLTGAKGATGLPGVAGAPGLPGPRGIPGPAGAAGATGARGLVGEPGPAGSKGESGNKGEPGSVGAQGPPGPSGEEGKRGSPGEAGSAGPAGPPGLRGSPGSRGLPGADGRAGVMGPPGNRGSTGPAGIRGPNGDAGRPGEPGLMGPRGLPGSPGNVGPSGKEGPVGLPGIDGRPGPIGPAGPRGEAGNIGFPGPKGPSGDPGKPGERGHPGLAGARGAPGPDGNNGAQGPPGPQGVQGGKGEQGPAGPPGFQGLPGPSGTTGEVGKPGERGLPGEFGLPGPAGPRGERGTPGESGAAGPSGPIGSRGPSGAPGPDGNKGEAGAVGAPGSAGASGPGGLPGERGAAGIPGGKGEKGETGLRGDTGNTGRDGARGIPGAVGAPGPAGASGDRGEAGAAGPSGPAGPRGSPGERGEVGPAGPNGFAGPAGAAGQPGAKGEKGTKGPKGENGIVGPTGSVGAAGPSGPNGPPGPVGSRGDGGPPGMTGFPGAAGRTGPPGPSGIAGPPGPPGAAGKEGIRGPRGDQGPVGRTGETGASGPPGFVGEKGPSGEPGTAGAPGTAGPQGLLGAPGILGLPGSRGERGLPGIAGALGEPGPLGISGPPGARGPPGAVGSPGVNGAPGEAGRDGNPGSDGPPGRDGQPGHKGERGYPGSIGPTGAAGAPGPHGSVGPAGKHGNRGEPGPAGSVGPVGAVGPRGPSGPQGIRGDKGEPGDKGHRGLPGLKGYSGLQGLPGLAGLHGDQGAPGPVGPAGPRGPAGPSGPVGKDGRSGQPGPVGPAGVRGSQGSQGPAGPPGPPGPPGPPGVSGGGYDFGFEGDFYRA

B1: ProCA32.V1.CXCR4 (designed binder)
chain: MSMTDLLNAEDIKKAVGAFSATDSFDHKKFFQMVGLKKKSADDVKKVFHMLDKDKDGFIEEDELGFILKGFSPDARDLSAKETKMLMAAGDKDGDGKIGVEEWSTLVAESLGASWHRPDKCCLGYQKRPLP
notes: also called ProCA32.CXCR4
For B1, which Kd (CXCR4) is on record?
The Kd was 1.84 µM.

B2: rat ProCA32.collagen (designed binder)
chain: MSMTDLLSAEDIKKAIGAFTAADSFDHKKFFQMVGLKKKSADDVKKVFHILDKDKDGFIEEDELGSILKGFSSDARDLSAKETKTLMAAGDKDGDGKIGVEEWSTLVAESGGGKKWHCYTYFPHHYCVYG
modifications: Used as a contrast agent loaded with Gd3+; the metal ions are not carried by the letters.
With B2 as the binder, how does the “Gd^3+ injection dosage per gram of tissue in fibrotic liver, against rProCA32” value (collagen type I) read?
Its value is roughly 2 fold.

B3: ProCA32 (other)
chain: SMTDLLNAEDIKKAVGAFSATDSFDHKKFFQMVGLKKKSADDVKKVFHMLDKDKDGFIEEDELGFILKGFSPDARDLSAKETKMLMAAGDKDGDGKIGVEEWSTLVAES
notes: Control without a targeting moiety; also called non-targeted ProCA32; ProCA32 itself without targeting moiety
Does B3 bind (PSMA [1])?
Result: no binding

B4: ProCA32.564.PSMA (designed binder, not shown: small tags and cut ends)
chain: MSMTDLLNAEDIKKAVGAFSATDSFDHKKFFQMVGLKKKSADDVKKVFHMLDKDKDGFIEEDELGFILKGFSPDARDLSAKETKMLMAAGDKDGDGKIGVEEWSTLVAESLSFFSCWLRRSFSLT
notes: Fluorescein-labelled in the anisotropy assays, unlabelled in the ELISA
With B4 as the binder, how does the EC50 (PSMA [2]) read?
Its EC50 is 0.52 µM.

— US20260216379A1 (GEORGIA STATE UNIVERSITY RESEARCH FOUNDATION, published 2026)
